Values of other authors as cited in PMC12580572.
pKd: −log10 of the molar value.

Key:
[1] = biological target: GluK2 (Rattus norvegicus) (UniProt P42260)
[2] = biological target: GluK5 (Rattus norvegicus) (UniProt Q63273)
Chain of UniProt Q63273 (Q63273 15-979): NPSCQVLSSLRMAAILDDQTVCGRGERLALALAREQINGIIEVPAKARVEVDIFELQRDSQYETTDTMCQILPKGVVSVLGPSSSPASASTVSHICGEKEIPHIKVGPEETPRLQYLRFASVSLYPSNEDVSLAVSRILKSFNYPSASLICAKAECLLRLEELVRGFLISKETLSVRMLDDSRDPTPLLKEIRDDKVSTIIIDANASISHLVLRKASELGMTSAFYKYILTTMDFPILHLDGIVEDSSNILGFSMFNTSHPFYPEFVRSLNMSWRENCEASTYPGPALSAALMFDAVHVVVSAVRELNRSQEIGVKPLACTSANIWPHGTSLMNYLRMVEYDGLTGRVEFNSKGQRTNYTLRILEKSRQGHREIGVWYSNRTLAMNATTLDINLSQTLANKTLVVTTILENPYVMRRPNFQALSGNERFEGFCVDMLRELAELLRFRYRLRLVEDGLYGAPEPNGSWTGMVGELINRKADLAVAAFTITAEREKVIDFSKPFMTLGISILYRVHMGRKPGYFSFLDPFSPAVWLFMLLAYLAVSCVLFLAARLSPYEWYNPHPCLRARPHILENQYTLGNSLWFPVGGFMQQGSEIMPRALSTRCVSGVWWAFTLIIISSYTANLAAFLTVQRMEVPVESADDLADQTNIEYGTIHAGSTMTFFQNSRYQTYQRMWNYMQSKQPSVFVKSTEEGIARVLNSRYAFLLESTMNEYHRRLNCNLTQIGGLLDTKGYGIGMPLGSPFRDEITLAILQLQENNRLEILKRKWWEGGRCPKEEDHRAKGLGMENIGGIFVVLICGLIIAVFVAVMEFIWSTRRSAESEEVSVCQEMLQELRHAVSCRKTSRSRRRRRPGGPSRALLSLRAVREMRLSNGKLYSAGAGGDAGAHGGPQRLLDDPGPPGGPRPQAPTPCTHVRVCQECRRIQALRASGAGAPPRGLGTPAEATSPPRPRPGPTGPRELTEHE

GluK2 (from UniProt P42260)
pKd [1]: 6.46 | pKd [2]: 7.11
